This note sets out measurements from publication PMC8466066, “Searching for Biological Function of the Mysterious PA2504 Protein from Pseudomonas aeruginosa” (International Journal of Molecular Sciences, 2021).

This data set deals with the molecule itself. The data set is described as follows: SEC-MALS; purified recombinant PA2504 on a Superdex200 column with HELEOS light scattering instrument; 50 mM Tris-Cl pH 7.0, 300 mM NaCl, 0.5 mL/min. (In general: In gel filtration, larger molecules generally elute earlier.)

By stoichiometry N is commonly meant the number of molecules, sites or subunits per partner or assembly.

B1: His6-tagged PA2504, recombinant, purified from E. coli (plasmid pQE2504) (natural protein)
chain: MASWTLVDASAIAVRHPYTFYKPDAETIDRVAAGESVKLIFAFDTDNPDAPRAERLWVTVEGIEADGAFSGRLDNYPQYIRDLSLGERIVFEARHIINTEHDPRETPISRYARRCFVTRRVIDEGKAVGYLYREAPEEENDSGWRLMAGDESDDYMNTAGTTAYVSLGSVLNADDSILPLLDAPPGRAFERLADGSFIEVQGPEG
notes: PA2504, uncharacterised protein of Pseudomonas aeruginosa; the PA2504 gene without the start codon cloned into pQE-80L; Dimer by SEC-MALS; No removal of the tag is described; also called His6PA2504; recombinant PA2504 protein; source: E. coli BL21-DE3, purified (Ni-NTA)
As for B1, the “stoichiometry N” value came out at 2.
